Tested on: T1, Ms6 integrase (Int) (Mycobacterium phage Ms6)
T1 sequence: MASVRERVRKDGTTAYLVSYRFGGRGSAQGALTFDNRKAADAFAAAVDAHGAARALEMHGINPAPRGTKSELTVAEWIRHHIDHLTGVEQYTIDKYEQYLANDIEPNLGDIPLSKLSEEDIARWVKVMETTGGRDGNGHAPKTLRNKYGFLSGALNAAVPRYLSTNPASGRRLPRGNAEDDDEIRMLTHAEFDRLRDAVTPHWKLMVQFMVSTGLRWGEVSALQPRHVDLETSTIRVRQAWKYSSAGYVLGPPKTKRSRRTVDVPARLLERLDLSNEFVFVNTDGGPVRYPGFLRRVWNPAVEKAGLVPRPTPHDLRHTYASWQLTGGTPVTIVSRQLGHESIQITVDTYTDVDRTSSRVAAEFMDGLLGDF
Experiment: cell_activity
Details: for activity (transformants/ug DNA): M. smegmatis

Substance	activity (transformants/ug DNA) (no integration)	further results
CAGCAGACACCCACATGTCCGTGTTGTCACTGACAACACGGCTCCAGGTTTTCCCAGGTCGCTACAGGTCTAAAAAGGTCGGAACAGAACCACACGGGTGTTTTTTCGCAGGTAAACGCCCATTTCCCCACGATCGAAGGGGTTCGAATCCCCTTAGCTCCACCCAAAACCGCAGGTCAGCGAATCGCCCAGAATCTGACAGCACCGATGACATCACAACGGATAGAATCCGGGTATGGCATCAGTGCGTGAACGGGTCCGCAAAGAC (double strand) [Ms6 attP region, 273 bp (pAV3, primers p13/p2N)]	–	activity (colonies/ug DNA) (integrase in trans from suicide helper pAV4, about): 40000
Ms6 attP-int fragment, 1382 bp (primers pC/p10)	0	–
Ms6 attP-int fragment, 1459 bp (primers p1C/p10)	0	–
Ms6 attP-int fragment, 1521 bp (primers p13/p10)	–	activity (transformants/ug DNA) (smallest functional cassette): 100000

From patent US6833135
